Common to all, as to format: cell-based
Data set [1] has as its system HEK293 cells. The data set is described as follows: Percentage of hPtFP-positive cells in stably transfected HEK293 mixed population during passage (growth / toxicity). The settings on record: for toxicity to host cells: stably transfected mammalian host cells (HEK293). Here is the method:
The cells were co-transfected with the hPtFP construct and pSV2-neo (Cat #37149, ATCC, Manassas, Va., USA) with FUGENE 6 transfection reagent (Roche Molecular Biochemicals, Indianapolis, Ind., USA) following the manufacturer's instructions. Two days after transfection, cells were treated with 0.4 mg/ml (milligram/milliliter) G418 in normal growth medium. After treating with G418 for two weeks, drug resistant cells were isolated or pooled. A mixture of stably transfected HEK293 mixed population (in which about 30% of the cells expressing hPtFP of this invention) were plated out in 96 cell micro plates. After 2, 4, or 6 days incubation, the cells were fixed with 3.7% formaldehyde for 20 minutes at room temperature (25° Centigrade). The percentage of positive cells was quantitated with ARRAYSCAN II instrument, as described herein.
To compare the growth rates of cells expressing or not expressing hPtFP, a mixture of stably transfected HEK293 mixed population (in which about 30% of the cells expressing hPtFP of this invention) were plated out in 96-well micro plates. After 2, 4, or 6 days incubation, the cells were fixed with 3.7% (percent) formaldehyde for twenty minutes at room temperature (25 degrees Centigrade). The percentage of positive cells was quantitated with ARRAYSCAN II instrument, as described herein.

The subject of data set [2] is COS1 cells. The data set is described as follows: In situ absorption and emission spectra of live COS1 cells expressing hPtFP. The settings on record: in COS-1 cells. How it is done: Forty-eight hours after initial transfection with the synthetic green fluorescent protein DNA of the present invention, COS1 cells were trypsinized and were kept in suspension. The absorption and emission spectra of the live cells expressing the hPtFP of the present invention were then measured, as shown in FIG. 2.

The test system of data set [3] is COS1 cells. The data set is described as follows: Fluorescence of COS1 cells transiently transfected with humanized versus wild type PtFP DNA (ARRAYSCAN II). To be noted: transient transfection. An excerpt: The difference at the nucleotide level (versus codon level) is that the hPtFP open reading frame (including the stop codon) contains 720 nucleotides, whereas the PtFP open reading frame (including the stop codon) contains 717 nucleotides. It will be appreciated by those skilled in the art, that without counting the extra valine introduced into hPtFP of the present invention, there are 166 nucleotide differences between the 717 nucleotides compared, or 23.15 percent difference (or 76.85% identity). If the stop codon is excluded in this comparison, there are 165 nucleotide differences in the 714 nucleotides compared, or 23.10 percent difference (or 76.9% identity). […]
To compare the expression of wild type Ptilosarcus gurneyi fluorescent protein DNA with humanized Ptilosarcus gurneyi green fluorescent protein synthetic DNA as described above, an expression vector for the wild type Ptilosarcus gurneyi DNA was constructed by cloning the wild type PtFP into the expression vector M2, and thus, these two expression vectors under comparison differed only in their coding regions. […] The purified DNA preps were quantitated by reading the optic absorption at 260 nm (nanometers) with a HP8453 UV—visible spectrophotometer (Agilent Technologies, Palo Alto, Calif., USA) and calculated based on 1 O.D.=[…] DNA. […]

Two molecules from patent publication US6780974B2, “Synthetic DNA encoding an orange seapen-derived green fluorescent protein with codon preference of mammalian expression systems and biosensors” (Cellomics, Inc., priority 2001, dated 2004) can be followed below.

B1: hPtFP: full length humanized Ptilosarcus gurneyi green fluorescent protein, 239 amino acid residues, valine added at position 2 (protein)
chain: MVNRNVLKNTGLKEIMSAKASVEGIVNNHVFSMEGFGKGNVLFGNQLMQIRVTKGGPLPFAFDIVSIAFQYGNRTFTKYPDDIADYFVQSFPAGFFYERNLRFEDGAIVDIRSDISLEDDKFHYKVEYRGNGFPSNGPVMQKAILGMEPSFEVVYMNSGVLVGEVDLVYKLESGNYYSCHMKTFYRSKGGVKEFPEYHFIHHRLEKTYVEEGSFVEQHETAIAQLTTIGKPLGSLHEWV
In the case of B1, the “percentage of positive cells during cell passage” value in data set [1] (HEK293 mixed population, about 30% expressing hPtFP, 2, 4 or 6 days incubation, no selection (FIG. 5)) is reported as “did not change”. In data set [1], the “toxicity to host cells” value is “not toxic to the cells”. The “absorption and emission spectra compared with wildtype Ptilosarcus gurneyi” value in data set [2] was “unchanged”.

B2: hPtFP DNA: synthetic DNA encoding hPtFP with codons favored for mammalian expression systems (nucleic acid)
DNA: AAGCTTGCCACCATGGTGAACCGGAACGTGCTGAAGAACACCGGCCTGAAGGAGATCATGAGCGCCAAGGCCAGCGTGGAGGGCATCGTGAACAACCACGTGTTCAGCATGGAGGGCTTCGGCAAGGGCAACGTGCTGTTCGGCAACCAGCTGATGCAGATCCGGGTGACCAAGGGCGGCCCTCTGCCCTTCGCCTTCGACATCGTGAGCATCGCCTTCCAGTACGGCAACCGGACCTTCACCAAGTATCCCGACGACATCGCCGACTACTTCGTGCAGAGCTTCCCTGCCGGCTTCTTCTACGAGCGGAACCTGCGGTTCGAGGACGGCGCCATCGTGGACATCCGGAGCGACATCAGCCTGGAGGACGACAAGTTCCACTACAAGGTGGAGTACCGCGGCAACGGCTTCCCTAGCAACGGCCCTGTGATGCAGAAGGCCATCCTGGGCATGGAGCCCAGCTTCGAGGTGGTGTACATGAACAGCGGCGTGCTGGTGGGCGAGGTGGACCTGGTGTACAAGCTGGAGAGCGGCAACTACTACAGCTGCCACATGAAGACCTTCTACCGGAGCAAGGGCGGCGTGAAGGAGTTCCCTGAGTACCTATTCATCCACCACCGGCTGGAGAAGAACTACGTGGAGGAGGGCAGCTTCGTGGAGCAGCACGAGACCGCCATCGCCCAGCTGACCACCATCGGCAAGCCTCTGGGCAGCCTGCACGAGTGGGTGTAAAGCGGCCGCAAGCTTGCCACCATGGTGAACCGGAACGTGCTGAAGAACACCGGCCTGAAGGAGATCATGAGCGCCAAGGCCAGCGTGGAGGGCATCGTGAACAACCACGTGTTCAGCATGGAGGGCTTCGGCAAGGGCAACGTGCTGTTCGGCAACCAGCTGATGCAGATCCGGGTGACCAAGGGCGGCCCTCTGCCCTTCGCCTTCGACATCGTGAGCATCGCCTTCCAGTACGGCAACCGGACCTTCACCAAGTATCCCGACGACATCGCCGACTACTTCGTGCAGAGCTTCCCTGCCGGCTTCTTCTACGAGCGGAACCTGCGGTTCGAGGACGGCGCCATCGTGGACATCCGGAGCGACATCAGCCTGGAGGACGACAAGTTCCACTACAAGGTGGAGTACCGCGGCAACGGCTTCCCTAGCAACGGCCCTGTGATGCAGAAGGCCATCCTGGGCATGGAGCCCAGCTTCGAGGTGGTGTACATGAACAGCGGCGTGCTGGTGGGCGAGGTGGACCTGGTGTACAAGCTGGAGAGCGGCAACTACTACAGCTGCCACATGAAGACCTTCTACCGGAGCAAGGGCGGCGTGAAGGAGTTCCCTGAGTACCTATTCATCCACCACCGGCTGGAGAAGAACTACGTGGAGGAGGGCAGCTTCGTGGAGCAGCACGAGACCGCCATCGCCCAGCTGACCACCATCGGCAAGCCTCTGGGCAGCCTGCACGAGTGGGTGTAAAGCGGCCGC
As for B2, the “toxicity to host cells” value in data set [1] is given as “does not have toxic effects on the host cells”. In data set [3], the “number and brightness of expressing cells compared with wild type PtFP DNA (visual observation)” value was “more hPtFP expressing cells and brighter cells than the wild type”. For the same molecule, the “fluorescent signal compared with wild type Ptilosarcus gurneyi green fluorescent protein” value in data set [3] (identical amount of DNA, forty hours post-transfection, intensity in nuclear area (FIG. 3)) was “stronger fluorescent signals than the wild type”.
